Earlier results as cited in PMC3263801.

Target: hDM2 (Homo sapiens) (UniProt Q00987)
Sequence (Q00987 whole entry): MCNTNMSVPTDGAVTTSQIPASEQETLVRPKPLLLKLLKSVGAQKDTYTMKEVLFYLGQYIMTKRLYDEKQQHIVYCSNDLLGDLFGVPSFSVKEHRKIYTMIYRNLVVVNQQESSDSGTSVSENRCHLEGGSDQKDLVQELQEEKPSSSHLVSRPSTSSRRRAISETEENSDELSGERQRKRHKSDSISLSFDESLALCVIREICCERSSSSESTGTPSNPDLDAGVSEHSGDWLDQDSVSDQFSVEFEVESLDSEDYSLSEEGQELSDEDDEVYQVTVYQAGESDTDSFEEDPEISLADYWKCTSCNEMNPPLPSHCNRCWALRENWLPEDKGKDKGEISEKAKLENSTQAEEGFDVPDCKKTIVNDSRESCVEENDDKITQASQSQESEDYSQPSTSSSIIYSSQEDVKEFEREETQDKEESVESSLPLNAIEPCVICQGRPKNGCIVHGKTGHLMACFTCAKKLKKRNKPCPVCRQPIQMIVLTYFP

Question: For “stapled p53 peptide (from UniProt P04637)”, which Kd is on record?
Answer: Its Kd is 0.9 nM.
